Measured values from patent US20240317871A1 (IMMUNOMIC THERAPEUTICS, published 2024).
Positions count from the first letter of the chain named. Blank lines part the entries; values can stand above or below the binder they belong to.

Assays:
murine HVEM = biological target: T1, murine HVEM (murine, UniProt Q80WM9 39-206, limits assumed); assay: ELISA
T1 construct: also called Mouse
T1 sequence (looked up): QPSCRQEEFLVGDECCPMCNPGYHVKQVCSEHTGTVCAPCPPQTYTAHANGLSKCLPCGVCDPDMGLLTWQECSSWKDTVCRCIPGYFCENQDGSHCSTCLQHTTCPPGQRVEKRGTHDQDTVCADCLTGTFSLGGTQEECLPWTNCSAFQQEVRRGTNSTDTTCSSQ

human HVEM = biological target: T2, human HVEM (human, UniProt Q92956 39-202, limits assumed); assay: ELISA
T2 sequence (looked up): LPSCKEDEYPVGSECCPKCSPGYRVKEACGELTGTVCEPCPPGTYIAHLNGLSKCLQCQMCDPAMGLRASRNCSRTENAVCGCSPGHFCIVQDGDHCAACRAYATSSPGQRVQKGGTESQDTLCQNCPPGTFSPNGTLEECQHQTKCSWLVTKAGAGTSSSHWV

cynomolgus monkey HVEM = biological target: T3, cynomolgus monkey HVEM (cynomolgus monkey, UniProt A0A2K5W0R1 39-203); assay: ELISA
T3 sequence: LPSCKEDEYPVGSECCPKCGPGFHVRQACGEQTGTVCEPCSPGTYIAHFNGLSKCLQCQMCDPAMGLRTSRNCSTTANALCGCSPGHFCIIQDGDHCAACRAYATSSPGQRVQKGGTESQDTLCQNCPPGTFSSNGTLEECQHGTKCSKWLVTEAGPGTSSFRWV

[1] = biological target: T4, Human HEVM recombinant protein (Sino Biological, 10334-H02H) (human, UniProt Q92956 39-202); assay: competition ELISA, competitor BTLA-His
T4 construct: construct known only by catalogue number; also called HVEM; human HVEM
T4 sequence (looked up): T2 sequence (looked up)
Procedure: The competitive activity of HVEM antibody to BTLA or LIGHT was evaluated with ELISA-based competitive assay. Briefly Human HEVM recombinant protein (Sino Biological, 10334-H02H, 4 ug/ml, 100 ul/well) was coated to ELISA plate (Thermo Scientific, 469949, 4C overnight). A pre-mixture of HVEM antibody clone with seral dilution and 400 nM BTLA-His (R&D systems, 9235-BT-050) or LIGHT-His (SinoBiological, 10386-H07H) recombinant protein was made and added to the ELISA plate after blocking with 3% BSA (200 ul/well, RT 2 Hr) for 1 Hr at RT. The serial dilutions of HVEM antibody clone involve 7 different concentrations, with a 3-fold dilution performed start from 100 nM for BTLA or 325 nM for LIGHT competitive assay. The concentration was the final concentration. Plate was washed with PBST; diluted HRP-anti-His (Biolegend, 652504, 1:1000) with PBS containing 5% FBS was added 100 ul per well for 1 Hr at RT. TMB substrate (KPL, 52-00-00) 100 ul per well after washing and incubate at room temperature for 15 minutes; then stop the development by adding 100 ul stop solution (KPL, 50-85-06). Plate was read at 450 nm. The IC50 was calculated using GraphPad Prism software (GraphPad Software, Inc. San Diego, CA, USA).

His-tagged human HVEM = biological target: T5, His-tagged human HVEM (human, UniProt Q92956 39-202, limits assumed); assay: BLI OctetRed96, mAb captured, 200 nM His-HVEM
T5 construct: Analyte of the BLI assay, 200 nM in PBS; not shown: His tag
T5 sequence (looked up): T2 sequence (looked up)
Procedure: Binding of antibodies to HVEM may also be determined by bio-layer interferometry (BLI) on an OctetRed96@ system (Sartorius). (See http://www.fortebio.com/bli_technology.html for general description of a BLI assay.) For this experiment, murine anti-human HVEM antibodies were captured from culture supernatant using anti-mouse IgG Fc capture and immobilized to dip and read biosensors. Sensors were then dipped into a solution of 200 nM His-tagged human HVEM in phosphate-buffered saline (PBS). Probes were dipped into PBS assay buffer and the dissociation rate (koff) was measured. The association rate (kₒₙ) and affinity (KD) were determined by curve fitting analysis.

ELISA signal (murine HVEM): 0.043 | ELISA signal (human HVEM): 3.19 | ELISA signal (cynomolgus monkey HVEM): 0.06 | IC50 [1]: 1.9 nM | Kd (His-tagged human HVEM): 65.8 nM | koff (His-tagged human HVEM): 0.0167 s⁻¹ | kon (His-tagged human HVEM): 254000 M⁻¹ s⁻¹
B1: Ab_083 (H5S20-49A39A) (antibody, V domains shown)
VH: EVQLQQSGAELVKPGASVKLSCTASGFNIKDTYVHWVKERPEQGLEWIGRIDPANDNTKYAPKFQVKATITADTSSNTAYLQLSSLTSEDNAVYYCAPYGNYPAWFAYWGQGTLVTVSA
VL: DVLMTQTPLSLPVSLGDQVSISCRSSQNIVHSNGNTYLEWYLQKPGQSPKLLIYKVSNRFSGVPDRFSGSGSGTDFTLKISRVEAEDLGVYYCFQGSHVPLTFGAGTKLELK
notes: also called Ab_153; Ab_83

ELISA signal (murine HVEM): 0.044 | ELISA signal (human HVEM): 3.26 | ELISA signal (cynomolgus monkey HVEM): 0.06 | IC50 [1]: 1.6 nM | Kd (His-tagged human HVEM): 48.2 nM | koff (His-tagged human HVEM): 0.0272 s⁻¹ | kon (His-tagged human HVEM): 565000 M⁻¹ s⁻¹
B2: Ab_074 (H5S20-52A21A) (antibody, V domains shown)
VH: EVQLQQSGAELVKPGASVKLSCTASGFNIKDTYIHWLNQRPEQGLEWIGRIDPANGKTKFAPKFQDKATITADTSSNTAYLQLSSLTSEDTAVYYCAGYGNSPWFAYWGQGTLVTVSA
VL: B1 VL with V19A, N28S, F60V
notes: also called Ab_74

ELISA signal (murine HVEM): 0.042 | ELISA signal (human HVEM): 2.95 | ELISA signal (cynomolgus monkey HVEM): 2.21 | Kd (His-tagged human HVEM): 544 nM | koff (His-tagged human HVEM): 0.0164 s⁻¹ | kon (His-tagged human HVEM): 30200 M⁻¹ s⁻¹
B3: Ab_055 (H5S19-1A1A) (antibody, V domains shown)
VH: DVQLQESGPGLVKPSQSLSLTCTVTGYSITSDYAWNWIRQFPGNKLEWMGYIAYSGGTSYSPSLKSRISITRDTSKNQFFLQLNSVTTEDTATYYCVYFKYGGAFAYWGQGTLVTVSA
VL: NIVLTQSPASLAVSLGQRATISCRASESVDSYGNSLMHWYQQKPGQPPKLLIYLASNLESGVPARFSGSGSRTDFTLTIDPVEADDAATYYCQQNNEDPPTFGGGTKLEI
notes: also called Ab_55

ELISA signal (murine HVEM): 0.045 | ELISA signal (human HVEM): 3.19 | IC50 [1]: 1.3 nM | Kd (His-tagged human HVEM): 8.67 nM | koff (His-tagged human HVEM): 0.00235 s⁻¹ | kon (His-tagged human HVEM): 270000 M⁻¹ s⁻¹
B4: Ab_034 (H5S15-16A11B) (antibody, V domains shown)
VH: DVQLVESGGGLVQPGGSRKLSCAASGFTFSSFGMHWVRQAPEKGLEWVAHISSGSSTIYYADTVKGRFTISRDNPKNTLFLQMTSLRSEDTAMYYCARGAYGNFAWFPYWGQGTLVTVSA
VL: DVVMTQTPLSLSVSLGDQASISCRSSQSLVHSNGNTYLHWYLQKPGQSPKLLIYKVSNRFSGVPDRFSGSGSGTDFTLKISRVEAEDLGVYFCSQSTHVPTFGSGTKLEIK
notes: also called Ab_34

ELISA signal (murine HVEM): 0.045 | ELISA signal (human HVEM): 3.2 | IC50 [1]: 1.4 nM | Kd (His-tagged human HVEM): 6.58 nM | koff (His-tagged human HVEM): 0.00235 s⁻¹ | kon (His-tagged human HVEM): 357000 M⁻¹ s⁻¹
B5: Ab_035 (H5S15-9A10A) (antibody, V domains shown)
VH: B4 VH with S31D
VL: B4 VL with S12P, S32T, K50R, S70G
notes: also called Ab_35

ELISA signal (murine HVEM): 0.054 | ELISA signal (human HVEM): 2.97 | ELISA signal (cynomolgus monkey HVEM): 0.062 | IC50 [1]: 11 nM | Kd (His-tagged human HVEM): 13.9 nM | koff (His-tagged human HVEM): 0.0216 s⁻¹ | kon (His-tagged human HVEM): 1.56e+06 M⁻¹ s⁻¹
B6: Ab_079 (H5S20-22A18A) (antibody, V domains shown)
VH: EVQLQQSGAELVKPGASVKLSCTASGFNIKDTYMHWVKQRPEQGLEWIGRIDPANGNTKYAPKFQGKATITADTSSNTAYLQLSSLTSEDTAVYYCARSFGNYFDYWGQGTTLTVSS
VL: NIVLTQSPASLAVSLGQRATISCRASESVDSYGNSFMHWYQQKPGQPPKLLIYLASNLESGVPARFSGSGSRTDFTLTIDPVEADDAATYYCQQNYADPWTFGGGTKLEIK
notes: also called Ab_79

ELISA signal (murine HVEM): 0.077 | ELISA signal (human HVEM): 3.4 | ELISA signal (cynomolgus monkey HVEM): 2.94 | IC50 [1]: 1.9 nM | Kd (His-tagged human HVEM): 4.8 nM | koff (His-tagged human HVEM): 0.00231 s⁻¹ | kon (His-tagged human HVEM): 482000 M⁻¹ s⁻¹
B7: Ab_008 (H5S14-11A10A) (antibody, V domains shown)
VH: EVKLVESGGGLVKPGGSLRLSCAASGFTFSSFAMSWIRQTPEKGLEWVASITTGGSSYSPDSLKGRFTISRDNVRNIVYLQMSSLRSEDTAMYACARGGGGNYFWFAYWGQGTLVTVSA
VL: DVVMTQTPLSLPVSLGDQASISCRSSQSLVHSNGNTYLHWYLQKPGQSPKLLIYKVSNRFSGVPDRFSGSGSGTDFTLKISRVEAEDLGVYFCSQSIHVPFTFGSGTKLEIK
notes: also called Ab_8
